B1: human CCR5 on cells (CEM.NKR-CCR5 transfectants; PM1 T cells; PBMCs; macrophages) (receptor)
chain: not shown
notes: whole, on cells; also called hCCR5

The target in assay [1] is T1, human cyclophilin A (human, UniProt P62937 1-165).
T1 construct: also called recombinant human cyclophilin
Kind of assay: competition with 125I-C-18 on CEM.NKR.CCR5 cells (method in paragraph 111).

In assay [2] the target is B1. The assay is described as follows: saturation binding of 125I-C-18 to CEM.NKR-CCR5 cells, 90 minutes at 4° C.
Assay [3] has as its target B1. Kind of assay: saturation binding of 125I-labeled human MIP-1β to CEM.NKR-CCR5 cells, 90 minutes at 4° C.
Procedure: The bound fraction was then measured and the dissociation constant for ligand binding calculated using a Graph Pad Prism software program (Mackiev, Cupertino, Calif.). […] Cells were then washed and the bound fraction measured radioactively.

T1 sequence (P62937 whole entry): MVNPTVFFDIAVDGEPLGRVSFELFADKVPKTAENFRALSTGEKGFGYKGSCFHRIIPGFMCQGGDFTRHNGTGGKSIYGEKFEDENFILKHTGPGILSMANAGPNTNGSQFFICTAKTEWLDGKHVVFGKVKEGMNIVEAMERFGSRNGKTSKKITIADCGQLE

As for B1, in assay [1], the binding result is recorded as “no binding”.

B2: Toxoplasma gondii cyclophilin-18 (C-18), recombinant (ligand)
chain: not shown
What is called Kd is the equilibrium constant for the complex coming apart. A high value points to lower affinity. Consider B2, for which the affinity in assay [2], expressed as Kd, was 3.65 nM.

B3: human macrophage inflammatory protein 1β (MIP-1β) (ligand, UniProt P13236 24-92, looked up)
chain: APMGSDPPTACCFSYTARKLPRNFVVDYYETSSLCSQPAVVFQTKRSKQVCADPSESWVQEYVYDLELN
notes: also called MIP-1B; human MIP-1 B
Consider B3, for which the Kd in assay [3] was 0.559 nM.

The values are drawn from patent US7510715 (US Dept. of Health and Human Services, dated 2009).
